# Assay results taken from PMC5087801.
# pKd: −log10 of the molar value.
# Target: fluorescein-labeled HMGB1 (full-length) (rat) (UniProt P63159)
# Assay: fluorescence polarisation
# Chain of UniProt P63159 (P63159 whole entry): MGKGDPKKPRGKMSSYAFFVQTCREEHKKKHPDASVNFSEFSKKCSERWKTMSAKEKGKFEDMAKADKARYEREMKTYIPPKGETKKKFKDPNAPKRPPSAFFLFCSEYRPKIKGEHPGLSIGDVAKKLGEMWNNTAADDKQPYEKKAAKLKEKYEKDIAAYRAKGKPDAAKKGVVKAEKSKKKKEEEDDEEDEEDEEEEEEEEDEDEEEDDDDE
substance,measurement,value
Danio rerio TLR5-N14VLR (drTLR5) (receptor),pKd,5.54
